Data published in the supplement of paper PMC10567573.

B1: FAM98B (parent)
chain: QLDKNSEVYQEVQAMFDTLGIPKS

Variants of: B1
Assay: protein stability index of a GFP-peptide fusion (GPS, HEK-293T) (PSI 1-6); higher = more stable
Details: c terminus: a fixed tail appended
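Also: lentivirally expressed fusions sorted by FACS into six bins by GFP to DsRed ratio, PSI derived from sequencing read proportions per bin multiplied by bin number.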

Variant	protein stability index
QLDKNSEVYQEVQAYFDTLGIPKS	2.55
QLDKNSEVYQEVQAMADTLGIPKS	3.82
QLDKNSEVYQEVQAMCDTLGIPKS	3.38
QLDKNSEVYQEVQAMEDTLGIPKS	4.36
QLDKNSEVYQEVQAMGDTLGIPKS	3.78
QLDKNSEVYQEVQAMHDTLGIPKS	2.58
QLDKNSEVYQEVQAMIDTLGIPKS	2.79
QLDKNSEVYQEVQAMKDTLGIPKS	4.07
QLDKNSEVYQEVQAMLDTLGIPKS	3.12
QLDKNSEVYQEVQAMMDTLGIPKS	3.3
QLDKNSEVYQEVQAMNDTLGIPKS	3.77
QLDKNSEVYQEVQAMPDTLGIPKS	4.42
QLDKNSEVYQEVQAMQDTLGIPKS	4.11
QLDKNSEVYQEVQAMRDTLGIPKS	2.92
QLDKNSEVYQEVQAMSDTLGIPKS	3.42
QLDKNSEVYQEVQAMTDTLGIPKS	3.78
QLDKNSEVYQEVQAMVDTLGIPKS	3.94
QLDKNSEVYQEVQAMWDTLGIPKS	2.1
QLDKNSEVYQEVQAMYDTLGIPKS	3.57
QLDKNSEVYQEVQAMFATLGIPKS	2.92
QLDKNSEVYQEVQAMFCTLGIPKS	2.64
QLDKNSEVYQEVQAMFETLGIPKS	3.42

Variant	protein stability index
QLDKNSEVYQEVQAMFFTLGIPKS	3.27
QLDKNSEVYQEVQAMFGTLGIPKS	3.08
QLDKNSEVYQEVQAMFHTLGIPKS	2.43
QLDKNSEVYQEVQAMFITLGIPKS	1.83
QLDKNSEVYQEVQAMFKTLGIPKS	2.77
QLDKNSEVYQEVQAMFLTLGIPKS	2.23
QLDKNSEVYQEVQAMFMTLGIPKS	2.5
QLDKNSEVYQEVQAMFNTLGIPKS	3.73
QLDKNSEVYQEVQAMFPTLGIPKS	3.49
QLDKNSEVYQEVQAMFQTLGIPKS	2.86
QLDKNSEVYQEVQAMFRTLGIPKS	2.71
QLDKNSEVYQEVQAMFSTLGIPKS	3.14
QLDKNSEVYQEVQAMFTTLGIPKS	3.12
QLDKNSEVYQEVQAMFVTLGIPKS	2.38
QLDKNSEVYQEVQAMFWTLGIPKS	1.57
QLDKNSEVYQEVQAMFYTLGIPKS	2.02
QLDKNSEVYQEVQAMFDALGIPKS	3.34
QLDKNSEVYQEVQAMFDCLGIPKS	2.59
QLDKNSEVYQEVQAMFDDLGIPKS	3.87
QLDKNSEVYQEVQAMFDELGIPKS	3.57
QLDKNSEVYQEVQAMFDFLGIPKS	3.52
QLDKNSEVYQEVQAMFDGLGIPKS	3.25

Variant	protein stability index
QLDKNSEVYQEVQAMFDHLGIPKS	3.07
QLDKNSEVYQEVQAMFDILGIPKS	2.79
QLDKNSEVYQEVQAMFDKLGIPKS	2.25
QLDKNSEVYQEVQAMFDLLGIPKS	2.97
QLDKNSEVYQEVQAMFDMLGIPKS	2.78
QLDKNSEVYQEVQAMFDNLGIPKS	3.13
QLDKNSEVYQEVQAMFDPLGIPKS	3.38
QLDKNSEVYQEVQAMFDQLGIPKS	3.24
QLDKNSEVYQEVQAMFDRLGIPKS	3.33
QLDKNSEVYQEVQAMFDSLGIPKS	2.85
QLDKNSEVYQEVQAMFDVLGIPKS	2.57
QLDKNSEVYQEVQAMFDWLGIPKS	2.02
QLDKNSEVYQEVQAMFDYLGIPKS	2.67
QLDKNSEVYQEVQAMFDTAGIPKS	3.64
QLDKNSEVYQEVQAMFDTCGIPKS	3.69
QLDKNSEVYQEVQAMFDTDGIPKS	2.85
QLDKNSEVYQEVQAMFDTEGIPKS	3.58
QLDKNSEVYQEVQAMFDTFGIPKS	2.85
QLDKNSEVYQEVQAMFDTGGIPKS	3.49
QLDKNSEVYQEVQAMFDTHGIPKS	3.71
QLDKNSEVYQEVQAMFDTIGIPKS	3.06
QLDKNSEVYQEVQAMFDTKGIPKS	3.32

Variant	protein stability index
QLDKNSEVYQEVQAMFDTMGIPKS	3.15
QLDKNSEVYQEVQAMFDTNGIPKS	3.38
QLDKNSEVYQEVQAMFDTPGIPKS	3.17
QLDKNSEVYQEVQAMFDTQGIPKS	3.76
QLDKNSEVYQEVQAMFDTRGIPKS	3.7
QLDKNSEVYQEVQAMFDTSGIPKS	3.46
QLDKNSEVYQEVQAMFDTTGIPKS	3.59
QLDKNSEVYQEVQAMFDTVGIPKS	3.56
QLDKNSEVYQEVQAMFDTWGIPKS	2.45
QLDKNSEVYQEVQAMFDTYGIPKS	3.6
QLDKNSEVYQEVQAMFDTLAIPKS	3.04
QLDKNSEVYQEVQAMFDTLCIPKS	2.63
QLDKNSEVYQEVQAMFDTLDIPKS	3.74
QLDKNSEVYQEVQAMFDTLEIPKS	3.77
QLDKNSEVYQEVQAMFDTLFIPKS	3.04
QLDKNSEVYQEVQAMFDTLHIPKS	2.55
QLDKNSEVYQEVQAMFDTLIIPKS	3.21
QLDKNSEVYQEVQAMFDTLKIPKS	3.62
QLDKNSEVYQEVQAMFDTLLIPKS	3.2
